Experimental data: patent publication US20190367619A1 (ARGENX, published 2019)
Where a chain is given by its changes, count along the chain named.

T1: human galectin-10 as coated in ELISA (soluble galectin-10; tag not given) (human, UniProt Q05315 1-142, limits assumed)
T1 construct: also called coated galectin-10; Gal10
T1 sequence: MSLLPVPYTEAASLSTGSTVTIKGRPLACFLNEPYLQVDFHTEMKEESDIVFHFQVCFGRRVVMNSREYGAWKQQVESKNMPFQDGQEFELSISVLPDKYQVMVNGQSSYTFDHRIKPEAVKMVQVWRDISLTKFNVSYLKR

T2: cynomolgus galectin-10-His, WGS isoform (cynomolgus)
T2 construct: not shown: His tag
T2 chain: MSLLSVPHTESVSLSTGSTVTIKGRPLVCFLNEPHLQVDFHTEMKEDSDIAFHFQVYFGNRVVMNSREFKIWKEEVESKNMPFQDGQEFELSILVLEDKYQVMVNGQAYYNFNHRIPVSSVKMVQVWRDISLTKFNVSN

T3: human galectin-10-His (human)
T3 construct: Whether the last M of the tag is the start Met of galectin-10 is not clear; also called human Gal10-HIS; humanGal10-His
T3 chain: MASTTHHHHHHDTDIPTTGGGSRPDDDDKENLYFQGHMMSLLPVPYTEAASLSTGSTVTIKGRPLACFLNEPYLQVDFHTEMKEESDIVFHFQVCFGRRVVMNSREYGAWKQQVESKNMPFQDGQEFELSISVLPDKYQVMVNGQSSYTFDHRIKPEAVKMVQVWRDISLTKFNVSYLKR

T4: cynomolgus galectin-10-His, YRT isoform (cynomolgus)
T4 construct: not shown: His tag
T4 chain: T2 chain with K23E, G24A, L31F, F69Y, K70R, I71T, S92R

B1: scFv 3A03 (periplasmic extract, Myc-tagged) (scFv, not shown: small tags and cut ends)
scFv: QVQLVESGGGLVQPGGSLRLSCATSGFTFSVYAMSWVRQAPGKGLEWVADINTSGDSTTYADSVKGRFTISRDNAKNTLYLQMNSLKPEDTAVYYCANRYTQERGQGTQVTVSSGGGGSGGGGSGGGGSDVVLTQTPGSLSVVPGEAASISCKPGRTLVHTDGRTYLYWLQQKPGQRPQLLIYQVSNRGSGVPDRFTGSGSGTDFTLKISGVKAEDAGVYYCAQATYYPLTFGSGTRLEIK
B2: VHH clone 13A05 (VHH)
VHH: QVQLVESGGGLVQAGGSLRLSCAASSSSYSMSWFRQAPGKEREFVAIISWSGGTYYDDSVKGRFTVSRDNAKNTVYLQMNSLKPEDTAVYYCAAGTQFSFSYREYDYWGQGTQVTVSS
notes: Purified VHH-Myc-His from E. coli; not shown: Myc and His tags of the phagemid vector
B3: VHH clone 13C06 (VHH)
VHH: B2 VHH with V2L, S32G, I47T, T54F, Q97R, D106H
notes: as for B2
B4: VHH clone 13C07 (VHH)
VHH: QLQVVESGGGLVQAGGSLRLSCAASSSAYSMAWFRQAPGKEREFVAAITWSGGSHHDDSVKGRFTISRDGAKNTVYLQMNSLKPEDTAVYYCAVGTLYSFSYRDYDYWGQGTQVTVSS
notes: as for B2
B5: VHH clone 13G12 (VHH)
VHH: B4 VHH with A32G, A47V, T49S, H56Y, S101R
notes: as for B2
B6: VHH clone 13C10 (VHH)
VHH: QLQLVESGGGLVQAGGSLKLSCAASGRTFNPYTMGWFRQAPGKEREFVAVVSSGGGTYYANSVKGRFTISRDNAKATVYLQMNSLKPEDTAVYYCAAGSIFRWSPMSYDYWGQGTQVTVSS
notes: as for B2
B7: VHH clone 13E07 (VHH)
VHH: ELQVVESGGGLVQAGDSLRLSCAVSGRTFSSYHMMWFRQAPGKEREFVAAIAWRGGTYCANSVKGRCTISRDNAKDTVYLQMNSLKPEDTAVYFCAASLRYVFDPSAMDYWGKGTLVTVSS
notes: as for B2
B8: VHH clone 13D12 (VHH)
VHH: B7 VHH with E1Q, V4L, V24A, I51L, K75Q, L99R, G112A
notes: as for B2
B9: scFv 4B10 (periplasmic extract, Myc-tagged) (scFv, not shown: small tags and cut ends)
scFv: QLQLVESGGGLVQPGGSLRLSCAASGFTFSNYWMYWVRQAPGKGLEWVSAIDVGGGTTDYAGSVKGRFTISRDNTKSTVYLQMNTLKPEDTALYYCLRGGSYYGGMDYWGKGTLVTVSSGGGGSGGGGSGGGGSQSALTQPSAVSVSLGQTARITCQGAKLGRYYGIWYQQKPGQAPVQVIYGDSNRPSGIPERFSGSSSGGTATLTISGAQAEDEADYYCQSYESSTSPVFGGGTHLTVL
B10: VHH clone 13H07 (VHH)
VHH: QLQLVESGGGLVQAGGSLRLSCVASGRTFSTYAMDWFRQAPGKEREFVAAISWHSAIYYADAVKGRFTISRDNGKNTMYLQMNNLKPEDTAVYFCAAALRYRFNPSAMEYWGKGTLVTVSS
notes: as for B2
B11: VHH clone 14E02 (VHH)
VHH: QVQLVESGGGLAQAGGSLRLSCVASGRAAGTYSMAWFRQAPGKEREFVAAITWAGGYTYGADSEKGRFTISRDNAKNTVYLQMNSLKPEDTAVYSCAGGRLFTSQSSAYQYWGQGTQVTVSS
notes: as for B2
B12: VHH clone 14E10 (VHH)
VHH: ELQLVESGGGLVQAGGSLRLSCAASEGTFRPYAMGWFRQAPRKEREFVAVISLSGAYTYNVNAVKGRFTISRDNAKNTVYLQMNSLTPEDTAIYYCGASRTYYRTDESTYEYWGQGTQVTVSS
notes: as for B2
B13: VHH clone 14F10 (VHH)
VHH: EVQLVESGGGLVQAGDSLRLSCAASGRTFSGYAVGWFRQAPGKEREFVTIISWNGGTHYADSVKGRFAISRDNAKNTVYLQMNNLKPEDTAVYYCAVSPKYYFSPETYNYWGQGTQVTVSS
notes: as for B2
B14: VHH clone 1D06 (VHH, not shown: large carriers)
VHH: QLQLVESGGGLVQPGGSLRLSCAASENSVSTYAMGWFRQAPGKEREFVAAITRAGGNTYNADSVKGRFTISRDNAENTIYLQMNSLKPEDTAVYSCAAGPRYSTISTMFPYWGQGTQVTVSS
notes: Positive control from the previous human-specific panel; also called 1D6
B15: scFv 4G05 (periplasmic extract, Myc-tagged) (scFv, not shown: small tags and cut ends)
scFv: QLQVVESGGGLVQTGGSLTLSCTTSGFTFSRYWMIWVRQAPGKGLEWVSSIYNDGGNTYYADSVKGRFTISRDNSENTLYLQMNSLKSEDTAVYYCAKLKAAYYGMDYWGKGTLVTVSSGGGGSGGGGSGGGGSSSALTQPSAVSVSLGQTARITCQGANLGRYYGIWYQQKPGQAPVQVIYGDSNRPSGIPERFSGSSSGGTATLTISGAQAEDEADYYCQSYESSTSPVFGGGTHLTVL
B16: scFv 4H10 (periplasmic extract, Myc-tagged) (scFv, not shown: small tags and cut ends)
scFv: QVQLVESGGGLVQPGGSLRLSCAASGFTFDDYAMSWVRQAPGKGLEWVSAISWNGGSTYYAESMKGRFTISRDNAKNTLYLQMNSLKSEDAAVYYCAKDLSASGSYYHTFGSWGQGTQVTVSSGGGGSGGGGSGGGGSQAGLTQPPSVAGTLGKTVTISCAGTSSDVGYGDYVSWYQHIPGTAPKLLIYKVKTRASGIPDRFSGSKSGNTASLTISGLQSGDESDYYCASYKNGGTAVFGGGTHLTVL

Experiments:
[1] = target: T1, human galectin-10 as coated in ELISA …; test: ELISA, scFv periplasmic extract on coated soluble galectin-10, anti-Myc-HRP
Procedure: In order to test the binding capacity of the scFvs to galectin-10, an ELISA binding assay was established. Briefly, a Maxisorp plate was coated with soluble galectin-10 (1 μg/mL), then blocked with casein, before being incubated with the periplasmic extract (dilution 1/5 in PBS) containing the scFv-Myc. Detection of the binder was carried out with an anti-Myc-HRP antibody. Absorbance was measured at 450 nm (reference at 620 nm) with Tecan instrument. A significant number of galectin-10 scFv binders were isolated after the second round of selection (45-87% of binders).

[2] = target: T2, cynomolgus galectin-10-His, WGS isoform; test: ELISA, Gal10-His coated at 1 ug/mL, VHH titrated, anti-Myc-HRP
Procedure: (§1) The binding capacity of the 15 VHH clones was analysed by ELISA. Briefly, a Maxisorp plate was coated overnight with human or cynomolgus WGS or YRT isoforms galectin-10-His at 1 μg/mL and blocked with PBS 1% casein, before being incubated with a serial dilution of the VHH (from 4 μM, dilution 1/3, 12 points of dilutions). […] Absorbance was measured at 450 nm (reference at 620 nm) with Tecan instrument. Finally, the raw data (OD values) were plotted on GraphPad Prism 7.01. […] As a positive control, clone 1D06 from the previous human specific panel was included.

human galectin-10-His = target: T3, human galectin-10-His; test: as above
Procedure: as §1

[3] = target: T4, cynomolgus galectin-10-His, YRT isoform; test: as above
Procedure: as §1

| Binder | PERI-ELISA binding (OD values) [1] | Bmax (OD values) [2] | EC50 [2] | Bmax (OD values) (human galectin-10-His) | EC50 (human galectin-10-His) | Bmax (OD values) [3] | EC50 [3] | binding result [2] | binding result [3] |
| --- | --- | --- | --- | --- | --- | --- | --- | --- | --- |
| B1 | 3.4 OD | – | – | – | – | – | – | – | – |
| B2 | – | 2.7 OD | 77.8 nM | 1.8 OD | 69.7 nM | 2.9 OD | 66.3 nM | – | – |
| B3 | – | 2.9 OD | 10.3 nM | 2.8 OD | 27.5 nM | 2.9 OD | 16.2 nM | – | – |
| B4 | – | 2.9 OD | 7.1 nM | 1.3 OD | 107 nM | 2.8 OD | 33.2 nM | – | – |
| B5 | – | 2.9 OD | 11.8 nM | 1.6 OD | 141 nM | 3.1 OD | 3.1 nM | – | – |
| B6 | – | 2.3 OD | – | 1 OD | – | 2.7 OD | 186 nM | – | – |
| B7 | – | 2.3 OD | 371 nM | 1.1 OD | – | 2.4 OD | – | – | – |
| B8 | – | 1.3 OD | – | 0.8 OD | – | 2.4 OD | 119 nM | – | – |
| B9 | 2.44 OD | – | – | – | – | – | – | – | – |
| B10 | – | 2.7 OD | 15.6 nM | 1.5 OD | 180 nM | 3.1 OD | 1.3 nM | – | – |
| B11 | – | 1.8 OD | – | 0.7 OD | – | 2.1 OD | – | – | – |
| B12 | – | 1.4 OD | – | 0.5 OD | – | 2.7 OD | 15.8 nM | – | – |
| B13 | – | 2.6 OD | 60.4 nM | 0.5 OD | – | 3 OD | 3 nM | – | – |
| B14 | – | 0 OD | – | 1.2 OD | 90.7 nM | 0 OD | – | no binding (tested: up to 4 uM VHH) | no binding (tested: up to 4 uM VHH) |
| B15 | 3.8 OD | – | – | – | – | – | – | – | – |
| B16 | 3.48 OD | – | – | – | – | – | – | – | – |
